In patent publication US20260216366A1, “CONJUGATE AND USES THEREOF” (Full-Life Technologies UK Limited, priority 2022, published 2026):

B1: CLDN18.2-DOTAGA (VHH)
VHH: EVQLVESGGGLVQPGGSLRLSCAASGSFFRIVAMGWYRQAPGSQRELVATITRGGSTYYADSVKGRFTISRDNAKNTLYLQMNSLRAEDTAVYYCNVRVEVPFMQPNDYWGQGTLVTVSS
modifications: DOTAGA chelator conjugated to the sdAb, residue not stated; DOL 1.23
notes: also called CLDN18.2 sdAb conjugated with DOTAGA
B2: CLDN18.2-L012 (VHH)
VHH: EVQLVESGGGLVQPGGSLRLSCAASGSFFRIVAMGWYRQAPGSQRELVATITRGGSTYYADSVKGRFTISRDNAKNTLYLQMNSLRAEDTAVYYCNVRVEVPFMQPNDYWGQGTLVTVSS
modifications: functional linker L012 conjugated to the sdAb, residue not stated; DOL 1.65
notes: also called CLDN18.2 sdAb-linker L012 conjugate
B3: CLDN18.2-L001 (VHH)
VHH: EVQLVESGGGLVQPGGSLRLSCAASGSFFRIVAMGWYRQAPGSQRELVATITRGGSTYYADSVKGRFTISRDNAKNTLYLQMNSLRAEDTAVYYCNVRVEVPFMQPNDYWGQGTLVTVSS
modifications: functional linker L001 conjugated to the sdAb, residue not stated; DOL 1.13
notes: also called CLDN18.2 sdAb-linker L001 conjugate
B4: CLDN18.2-L010 (VHH)
VHH: EVQLVESGGGLVQPGGSLRLSCAASGSFFRIVAMGWYRQAPGSQRELVATITRGGSTYYADSVKGRFTISRDNAKNTLYLQMNSLRAEDTAVYYCNVRVEVPFMQPNDYWGQGTLVTVSS
modifications: functional linker L010 conjugated to the sdAb, residue not stated; DOL 1.54
notes: also called CLDN18.2 sdAb-linker L010 conjugate; linker 010 conjugate
B5: CLDN18.2-L002 (VHH)
VHH: EVQLVESGGGLVQPGGSLRLSCAASGSFFRIVAMGWYRQAPGSQRELVATITRGGSTYYADSVKGRFTISRDNAKNTLYLQMNSLRAEDTAVYYCNVRVEVPFMQPNDYWGQGTLVTVSS
modifications: functional linker L002 conjugated to the sdAb, residue not stated; DOL 1.18
notes: also called CLDN18.2 sdAb-linker L002 conjugate
B6: CLDN18.2-L009 (VHH)
VHH: EVQLVESGGGLVQPGGSLRLSCAASGSFFRIVAMGWYRQAPGSQRELVATITRGGSTYYADSVKGRFTISRDNAKNTLYLQMNSLRAEDTAVYYCNVRVEVPFMQPNDYWGQGTLVTVSS
modifications: functional linker L009 conjugated to the sdAb, residue not stated; DOL 1.77
notes: also called CLDN18.2 sdAb-linker L009 conjugate; linker 009 conjugate
B7: CLDN18.2-L007 (VHH)
VHH: EVQLVESGGGLVQPGGSLRLSCAASGSFFRIVAMGWYRQAPGSQRELVATITRGGSTYYADSVKGRFTISRDNAKNTLYLQMNSLRAEDTAVYYCNVRVEVPFMQPNDYWGQGTLVTVSS
modifications: functional linker L007 conjugated to the sdAb, residue not stated; DOL 1.69
notes: also called CLDN18.2 sdAb-linker L007 conjugate; linker 007 conjugate
B8: CLDN18.2-L004 (VHH)
VHH: EVQLVESGGGLVQPGGSLRLSCAASGSFFRIVAMGWYRQAPGSQRELVATITRGGSTYYADSVKGRFTISRDNAKNTLYLQMNSLRAEDTAVYYCNVRVEVPFMQPNDYWGQGTLVTVSS
modifications: functional linker L004 conjugated to the sdAb, residue not stated; DOL 1.37
notes: also called CLDN18.2 sdAb-linker L004 conjugate
B9: FAP-L007 (VHH)
VHH: QVQLLESGGGLVQPGGSLRLSCAASGFGFGNSLMSWVRRAPGKGLEWVSTIYPRGSFTDYADSVKGRFTISRDNSRNTLYLQMNSLRAEDTAVYYCATGWGRSSDYDPPGQGTLVTVSS
modifications: functional linker L007 conjugated to the sdAb, residue not stated; DOL 0.68
notes: also called FAP sdAb-linker L007 conjugate
B10: FAP-DOTAGA (VHH)
VHH: QVQLLESGGGLVQPGGSLRLSCAASGFGFGNSLMSWVRRAPGKGLEWVSTIYPRGSFTDYADSVKGRFTISRDNSRNTLYLQMNSLRAEDTAVYYCATGWGRSSDYDPPGQGTLVTVSS
modifications: DOTAGA chelator conjugated to the sdAb, residue not stated; DOL 0.42
notes: also called FAP sdAb conjugated with DOTAGA (control)

Assays:
[1] = Pharmacokinetic study of CLDN18.2-linker conjugates (serum ELISA, NCA); format: in vivo, BALB/c mice; conditions: FIG. 2; CLDN18.2 conjugate of the named linker compared to the control group
Experimental: The in vivo pharmacokinetic profile of the CLDN18.2-linker conjugates was analyzed. Briefly, BALB/c mice were administered with the conjugates by intravenous injection at a dose of about 1 mg/kg. Then, whole blood of the animal was collected at different time points over 48 hours.
(§1) The whole blood was collected into a tube without anticoagulation and maintained at room temperature for more than 30 minutes, followed by centrifuge at approximately 5000 rpm at 4° C. for 5 minutes to obtain serum. Concentration of the conjugates in serum was then measured by ELISA using HRP-labeled goat anti-alpaca IgG VHH domain secondary antibody. The data was further analyzed using PK Solver software, and the […] (NCA) was used to evaluate the pharmacokinetic parameters, as shown in Table 7 and FIG. 2.

[2] = Pharmacokinetic study of FAP-linker conjugates (serum ELISA, NCA); format: in vivo, BALB/c mice; conditions: FIG. 3; FAP conjugate of the named linker compared to the control group
Experimental: he in vivo pharmacokinetic profile of the FAP-linker conjugates was analyzed. Briefly, BALB/c mice were administered with the conjugates by intravenous injection at a dose of about 1 mg/kg. Then, whole blood of the animal was collected at different time periods over 48 hours.
as §1, with “centrifugated” for “centrifuge”, “8” for “7”, “3.” for “2.”

CLDN18.2 HEK293T cells = assay: In vivo SPECT imaging of 111In-labeled CLDN18.2 conjugates; design: species or system female athymic nude mice; conditions: FIG. 4, 10 MBq/mouse i.v., over 48 hours, compared to the control group
Experimental: In vivo biodistribution of the CLDN18.2 conjugates was analyzed by SPECT imaging via ^111In labeling. Briefly, the CLDN18.2 conjugates were labeled by ^111In at 30° C. for 60 min and purification by NAP-5 column. followed by analysis of radioactive purity through radio-TLC and radio-HPLC on the same day of labelling. The release criteria for radio-labelled sample was ≥90% radiochemical purity.
For the imaging study, female athymic nude mice (approximately 6-8 weeks old) were each inoculated with 5×10^6 CLDN18.2 HEK293T cells via subcutaneous injection into the shoulder. When the tumor volume reached to about 200 to 300 mm^3, the animal was injected with the labeled conjugate at a dose of 10 MBq/mouse by a single bolus intravenous injection in tail vein. Animals were then subject to whole-body static SPECT followed by CT at different time points under isoflurane anaesthesia. […] In addition, the tumor/kidney ratio was increased around 5-10 folds compared to the control group.

[3] = tested on: FAP expressing HEK293-hFAP cells; assay: In vivo SPECT imaging of 177Lu-labeled FAP conjugates; design: species or system female athymic nude mice; conditions: FIG. 5, 30 MBq/mouse i.v., at different time points
Experimental: In vivo biodistribution of FAP conjugates was analyzed by SPECT imaging via ^177Lu labeling. Briefly, the FAP conjugates were labeled by ^177Lu with a molar activity of 1 MBq/μg at 37° C. for 60 min and purified by size-exclusion chromatography, followed by analysis of radioactive purity through radio-TLC and radio-HPLC on the same day of labelling. The release criteria for radio-labelled sample was ≥90% radiochemical purity.
For the imaging study, female athymic nude mice (approximately 6-8 weeks old) were each inoculated with 5×10^6 FAP expressing HEK293-hFAP cells via subcutaneous injection into the shoulder. When the tumor volume reached to about 150 to 250 mm^3, the animal was injected with the labeled conjugate at a dose of 30 MBq/mouse by a single bolus intravenous injection in tail vein. Animals were then subject to whole-body static SPECT followed by CT at different time points under isoflurane anaesthesia.

human Claudin 18.2-VLP = molecular target: T1, human Claudin 18.2-VLP (human, UniProt P56856-2 1-261); assay: ELISA, plate coated with human Claudin 18.2-VLP, HRP anti-sdAb detection
T1 construct: also called CLDN18.2
T1 sequence (looked up): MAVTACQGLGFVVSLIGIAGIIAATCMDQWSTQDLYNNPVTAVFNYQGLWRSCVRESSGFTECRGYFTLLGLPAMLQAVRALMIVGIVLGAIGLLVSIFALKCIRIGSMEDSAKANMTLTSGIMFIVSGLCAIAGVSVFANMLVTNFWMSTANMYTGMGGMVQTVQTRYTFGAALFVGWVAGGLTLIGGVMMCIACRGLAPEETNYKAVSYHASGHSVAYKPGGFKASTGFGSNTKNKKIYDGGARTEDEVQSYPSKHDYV
Experimental: (§2) Binding affinities of the prepared conjugates with tumor antigen was evaluated by ELISA. […] On the next day, the plate was washed by 0.05% PBST and blocked by 10% StartingBlock buffer (Thermo, #37538) at room temperature for 1 hr. Then, 100 μL of serial diluted conjugate samples in 1% StartingBlock buffer was added to the plate. The plate was further incubated at room temperature for 2 hrs under shaking at 100 rpm and washed by 0.05% PBST. Then 100 μL 0.4 μg/mL HRP-conjugated anti-sdAb secondary antibody (Jackson, #128-035-232) was added and subject to 1 hr incubation at room temperature under shaking at 100 rpm. The plate was then washed by 0.05% PBST and developed using TMB solution (KPL, #5120-00820).

human FAP-hFc = molecular target: T2, human FAP-hFc (human, UniProt Q12884 26-760); assay: ELISA, plate coated with human FAP-hFc, HRP anti-sdAb detection
T2 construct: Coated on the ELISA plate as human FAP-hFc; also called FAP-alpha; not shown: human Fc (hFc)
T2 sequence (looked up): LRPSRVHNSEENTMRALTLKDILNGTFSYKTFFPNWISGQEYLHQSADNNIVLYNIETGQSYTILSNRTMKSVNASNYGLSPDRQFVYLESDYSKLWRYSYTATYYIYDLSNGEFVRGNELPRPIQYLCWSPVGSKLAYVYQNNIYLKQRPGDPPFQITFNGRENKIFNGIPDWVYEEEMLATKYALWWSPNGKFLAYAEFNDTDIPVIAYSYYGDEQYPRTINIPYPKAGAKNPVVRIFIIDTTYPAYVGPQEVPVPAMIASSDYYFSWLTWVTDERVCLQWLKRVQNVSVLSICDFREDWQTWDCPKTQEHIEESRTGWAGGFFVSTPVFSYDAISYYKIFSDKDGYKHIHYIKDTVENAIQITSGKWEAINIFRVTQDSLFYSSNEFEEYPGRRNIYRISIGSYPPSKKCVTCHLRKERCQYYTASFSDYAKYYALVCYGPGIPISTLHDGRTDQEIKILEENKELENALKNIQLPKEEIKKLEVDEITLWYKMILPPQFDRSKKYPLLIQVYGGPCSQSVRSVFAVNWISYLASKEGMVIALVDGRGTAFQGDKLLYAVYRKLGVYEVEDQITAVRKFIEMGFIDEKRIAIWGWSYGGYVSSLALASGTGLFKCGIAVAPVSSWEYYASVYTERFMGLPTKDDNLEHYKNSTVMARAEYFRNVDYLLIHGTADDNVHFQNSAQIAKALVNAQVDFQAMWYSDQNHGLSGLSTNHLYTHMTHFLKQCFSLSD
Experimental: as §2

Row | Molecule | EC50 (human Claudin 18.2-VLP) | further results
1 | O=C(O)CCC(NC(=O)C(CCCCNC(=O)CCCc1ccc(I)cc1)NC(=O)CNC(=O)CCC(C(=O)O)N1CCN(CC(=O)O)CCN(CC(=O)O)CCN(CC(=O)O)CC1)C(=O)NCc1ccc(N=C=S)cc1 (stereo not shown) [L007] |  | blood circulation of the CLDN18.2 conjugates [1]: significantly prolonged blood circulation; blood circulation of the FAP conjugates [2]: significantly prolonged blood circulation; retention of the CLDN18.2 conjugates in tumor (CLDN18.2 HEK293T cells): significantly increased retention; retention of the FAP conjugates in tumor [3]: increasing retention
2 | O=C(O)CN1CCN(CC(=O)O)CCN(C(CCC(=O)NCC(=O)NC(CCCCNC(=O)CCCc2ccc(I)cc2)C(=O)NCc2ccc(N=C=S)cc2)C(=O)O)CCN(CC(=O)O)CC1 (stereo not shown) [L009] |  | blood circulation of the CLDN18.2 conjugates [1]: significantly prolonged blood circulation; retention of the CLDN18.2 conjugates in tumor (CLDN18.2 HEK293T cells): significantly increased retention
3 | B1 | 0.84 nM | 
4 | B2 | 1.93 nM | 
5 | B3 | 1.75 nM | 
6 | B4 | 2.31 nM | 
7 | B5 | 2.18 nM | 
8 | B6 | 3.11 nM | 
9 | B7 | 7.41 nM | 
10 | B8 | 3.47 nM | 
11 | B9 |  | EC50 (human FAP-hFc): 0.0603 nM
12 | B10 |  | EC50 (human FAP-hFc): 0.0553 nM
